This assay has as its target GPIIb/IIIa protein (UniProt P08514). The assay is described as follows: equal mix of wt and RGD1 phage bound to GPIIb/IIIa-coated plate, eluted, phagemid DNA analysis.

B1: phage wtCD59 (CD59-gIII fusion protein displayed on phage) (protein, human, UniProt P13987 26-102, looked up, not shown: small tags and cut ends; large carriers)
chain: LQCYNCPNPTADCKTAVNCSSDFDACLITKAGLQVYNKCWKFEHCNFNDVTTRLRENELTYYCCKKDLCNFNEQLEN
As to B1, the clones recovered among 12 picked after binding of an equal phage mix is 1 clones of 12.
